Patent EP4696711A1 (Jiangsu Hengrui Pharmaceuticals Co., Ltd., dated 2024)

B1: M4-H1L1 (antibody, human IgG1, kappa)
heavy: not shown
light: DIQMTQSPSSLSASVGDRVTITCSASSSVFNMNWYQQKPGKSPKLWIYDISKLASGVPSRFSGSGSGTDFTLTISSLQPEDFATYYCQQRSFYPPTFGGGTKVEIKRTVAAPSVFIFPPSDEQLKSGTASVVCLLNNFYPREAKVQWKVDNALQSGNSQESVTEQDSKDSTYSLSSTLTLSKADYEKHKVYACEVTHQGLSSPVTKSFNRGEC
notes: humanized IgG1/kappa
B2: M4H1L1-ZalH4 (bispecific antibody, human IgG1, kappa)
heavy: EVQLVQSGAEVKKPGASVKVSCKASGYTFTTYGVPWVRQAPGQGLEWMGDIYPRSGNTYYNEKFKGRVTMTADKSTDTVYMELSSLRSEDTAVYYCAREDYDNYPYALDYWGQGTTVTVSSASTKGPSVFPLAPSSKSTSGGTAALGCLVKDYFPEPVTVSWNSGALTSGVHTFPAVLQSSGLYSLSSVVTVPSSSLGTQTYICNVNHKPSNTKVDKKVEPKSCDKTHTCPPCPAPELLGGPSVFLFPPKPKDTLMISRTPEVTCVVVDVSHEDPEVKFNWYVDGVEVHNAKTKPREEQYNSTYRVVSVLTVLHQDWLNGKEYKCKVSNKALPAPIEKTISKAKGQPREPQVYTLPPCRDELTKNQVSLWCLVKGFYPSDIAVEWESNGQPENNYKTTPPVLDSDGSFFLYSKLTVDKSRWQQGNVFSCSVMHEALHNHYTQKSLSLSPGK
light: B1 light
chain 1: not shown
chain 2: DIQLTQSPSSLSASVGDRVTITCRASQDISSALVWYQQKPGKAPKLLIYDASSLESGVPSRFSGSESGTDFTLTISSLQPEDFATYYCQQFNSYPLTFGGGTKVEIKGGGGSSGAPRFLTRPKASVVSVGKDATLSCQIVGNPFPQVSWEKDKQPVTAGVRFRLAQDGDLYRLKILDLQLSDSGQYVCRARNAHGEAFACLGLQVDAEA

Molecular target: T1, Cynomolgus MUC1 his (Cat. # MU1-C52H5, Acro) (cynomolgus)
T1 construct: His-tagged, bought; also called Cyno MUC1-His
Experiment: SPR (Biacore T200), antibody captured on Protein A

Binder | Kd
B1 | 18.9 nM
B2 | 17.8 nM
